Test results: publication PMC5368982, “Engineering Structurally Interacting RNA (sxRNA)”

Columns and labels:
[1] = target: T1, SLBP (histone stem-loop binding protein) (UniProt Q14493 1-270); test: RIP pull-down with recombinant SLBP; with T-1* trigger; EMSA: 1x NT2 buffer, 1 mM DTT, RNaseOUT, 50 uL, room temperature 1 h, 1.25 ug SLBP (~37 pmol), native 8% PAGE in 1x TB; RIP: RNAs in 10 mM Tris/100 mM NaCl; pH; conditions: label: none, trans three-way junction, bait:trigger 1:1, not a blunt duplex
[2] = target: T1, SLBP (histone stem-loop binding protein); test: EMSA; without trigger; EMSA: 1x NT2 buffer, 1 mM DTT, RNaseOUT, 50 uL, room temperature 1 h, 1.25 ug SLBP (~37 pmol), native 8% PAGE in 1x TB; RIP: RNAs in 10 mM Tris/100 mM NaCl; pH; conditions: protein: recombinant; label: none; alternative fold without HSL
[3] = target: T1, SLBP (histone stem-loop binding protein); test: EMSA; with T-1 trigger; EMSA: 1x NT2 buffer, 1 mM DTT, RNaseOUT, 50 uL, room temperature 1 h, 1.25 ug SLBP (~37 pmol), native 8% PAGE in 1x TB; RIP: RNAs in 10 mM Tris/100 mM NaCl; pH; conditions: protein: recombinant; label: none; trans three-way junction, bait:trigger 1:1, not a blunt duplex

B1: B-1a + T-1* (trans-3WJ) (mixed)
RNA 1: GGGCAAACACCAUUGUCAAAAGGCUCUUUUCAGAGCCACACUCCA
RNA 2: UGGAGUGUGACAAUGGUGUUUG
modifications: 2'-OMe on trigger (strand 2)
[1]
  binding result: binds

B2: B-1b (structured_RNA)
RNA: GGGAAGAGAGCCCAAACACCAUUGUCAAAAGGCUCUUUUCAGAGCUACACUCCAGAGCU
modifications: none
[2]
  binding result: no binding

B3: B-1b + T-1 (trans-3WJ) (structured_RNA)
RNA 1: GGGAAGAGAGCCCAAACACCAUUGUCAAAAGGCUCUUUUCAGAGCUACACUCCAGAGCU
RNA 2: UGGAGUGUGACAAUGGUGUUUG
modifications: none
[3]
  binding result: binds
